From patent US7585952 (BIOTECHNOL S A, dated 2009)

Key:
human ErbB2 receptor [1] = target: T1, human ErbB2 receptor (human, UniProt P04626 23-1255); assay: cell-based or functional assay
human ErbB2 receptor [2] = target: T1, human ErbB2 receptor; assay: cell-based or functional assay; remark: listed apart in the source
[3] = target: T2, EGF receptor (EGFR, ErbB1) on A431 cells (human, UniProt P00533 25-1210); assay: flow cytometry on A431 cells (EGFR at 2x10^6 receptors per cell)
T2 construct: whole, on cells; A431 cells also express ErbB2 at very low levels; also called homologous EGF receptor

Binder | IC50 of inhibition of SKBR3 cell proliferation, 72 h (human ErbB2 receptor [1]) | IC50 of inhibition of SKBR3 cell proliferation, expressed as scFv concentration in the phage preparation (human ErbB2 receptor [1]) [µg/mL] | antitumor activity on SKBR3 cells relative to soluble Erbicin (human ErbB2 receptor [1]) [fold] | Growth Inhibition (IC50, cfu/ml), BT-474 cells, 96 h (human ErbB2 receptor [2]) [cfu/ml] | Growth Inhibition (IC50, cfu/ml), MDA-MB453 cells, 96 h (human ErbB2 receptor [2]) [cfu/ml] | Growth Inhibition (IC50, cfu/ml), NIH 3T3 (ErbB2-trasf.) cells, 96 h (human ErbB2 receptor [2]) [cfu/ml] | Growth Inhibition (IC50, cfu/ml), SK-OV-3 cells, 96 h (human ErbB2 receptor [2]) [cfu/ml] | Growth Inhibition (IC50, cfu/ml), SKBR3 cells, 96 h (human ErbB2 receptor [2]) [cfu/ml] | binding result [3]
Erbicin (soluble human anti-ErbB2 scFv) (scFv, not shown: small tags and cut ends) scFv: QVQLLQSAAEVKKPGESLKISCKGSGYSFTSYWIGWVRQMPGKGLEWMGIIYPGDSDTRYSPSFQGQVTISADKSISTAYLQWSSLKASDTAVYYCARWRDSPLWGQGTLVTVSSGGGGSGGGGSGGSALQAVVTQEPSFSVSPGGTVTLTCGLSSGSVSTSYYPSWYQQTPGQAPRTLIYSTNTRSSGVPDRFSGSILGNKAALTITGAQADDESDYYCVLYMGSGQYVFGGGTKLTVLGHHHHHH | 6.4 µg/mL | – | – | – | – | – | – | – | –
Ph-Erbicin (human anti-ErbB2 scFv from type A clone, displayed on phage) (scFv, Tested as whole phage particles carrying the scFv; also called A type phage clone; clone A) scFv: QVQLLQSAAEVKKPGESLKISCKGSGYSFTSYWIGWVRQMPGKGLEWMGIIYPGDSDTRYSPSFQGQVTISADKSISTAYLQWSSLKASDTAVYYCARWRDSPLWGQGTLVTVSSGGGGSGGGGSGGSALQAVVTQEPSFSVSPGGTVTLTCGLSSGSVSTSYYPSWYQQTPGQAPRTLIYSTNTRSSGVPDRFSGSILGNKAALTITGAQADDESDYYCVLYMGSGQYVFGGGTKLTVLG | 2.8e+10 cfu/ml | 0.0013 | ~5000 | 2.5e+11 | 1.4e+11 | 3.5e+11 | 4e+11 | 1.2e+10 | no binding
hERB-RNase (Erbicin fused to human pancreatic ribonuclease) (other) QVQLLQSAAEVKKPGESLKISCKGSGYSFTSYWIGWVRQMPGKGLEWMGIIYPGDSDTRYSPSFQGQVTISADKSISTAYLQWSSLKASDTAVYYCARWRDSPLWGQGTLVTVSSGGGGSGGGGSGGSALQAVVTQEPSFSVSPGGTVTLTCGLSSGSVSTSYYPSWYQQTPGQAPRTLIYSTNTRSSGVPDRFSGSILGNKAALTITGAQADDESDYYCVLYMGSGQYVFGGGTKLTVLGAAASGGPEGGSKESRAKKFQRQHMDSDSSPSSSSTYCNQMMRRRNMTQGRCKPVNTFVHEPLVDVQNVCFQEKVTCKNGQGNCYKSNSSMHITDCRLTNGSRYPNCAYRTSPKERHIIVACEGSPYVPVHFDASVEDST | ~20 nM | – | – | – | – | – | – | – | –
